The test system of this data set is MS2 coat protein. Kind of data set: apparent KD of MS2 coat protein; designed switch direction (-1 OFF switch, 1 ON switch): -1; higher = weaker reporter binding. The method, boiled down: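 Designed RNA switches sharing common flanks were transcribed on Illumina chips by stalled E. coli RNA polymerase. They were titrated with SNAP-549-labelled MS2 coat protein, from 0.7 or 1.5 nM doubling to 3 µM, in Tris-HCl pH 7.5 buffer with KCl, MgCl2, BSA, DTT, tRNA and Tween-20. Titrations ran without input, with 200 uM small-molecule ligand, or with an oligonucleotide input. The apparent KD of each design is the median over its clusters, after curve-fitting of normalised cluster fluorescence.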

[1] abbreviates: input ligand: microRNA oligo, concentration not stated.
Setting [2] is: Eterna round: R95, input ligand: FMN 200 uM.
Where [3] appears, read: Eterna round: R95, input ligand: microRNA oligo, concentration not stated.
The mark [4] stands for this setting: Eterna round: R95, input ligand: none.

Take “GCAUGUUGGUAGGAUAUGCAGCGAAAACCGCUAGUAGAAGGAUUGACAUGAGGAUCACCCAUGUGAACCGAAGG [Esesbece] (Eterna round: R97, puzzle: Exclusion 6)”: the “apparent KD of MS2 coat protein” value amounted to 139 nM (input ligand: FMN 200 uM) and 36.6 nM (input ligand: none).

“GCCAGAGCAGGAUAUCUAUAUUAUCACAUGAGGAUCACCCAUGUCCAGCGAAAGCUGGAGGGAGAAGGGCUCUGGC [Fiskers Ex 5 - 26] (Eterna round: R96, puzzle: Exclusion 5)”: the “apparent KD of MS2 coat protein” value came to 51 nM (input ligand: FMN 200 uM), 60.9 nM under setting [1] and 104 nM (input ligand: none).

Regarding “GCCAGAGCAGGAUAUCUAUAUUAUCACAUGAGGAUCACCCAUGUCCAGCGAAAGCUGGAGGGAGAAGGGCUCUGGC [Fiskers Ex 5 - 26] (puzzle: Exclusion 5)”, the “apparent KD of MS2 coat protein” value is, setting by setting: under setting [2], 55.7 nM; under setting [3], 76.7 nM; under setting [4], 74.5 nM.

Turning to “GCCAGAGCAGGAUAUUCAAUAAUUCACAUGAGGAUCACCCAUGUCCAGCGAAAGCUGGAAGGAGAAGGGCUCUGGC [Fiskers Ex 5 - 3] (puzzle: Exclusion 5)”, the “apparent KD of MS2 coat protein” value under setting [3] was 14.5 nM.

In the case of “GCCAGAGCAGGAUAUUCAAUAUCACACAUGAGGAUCACCCAUGUCUGGCGAAAGCUAGAGGGAGAAGGGCUCUGGC [Mat - Exclusion 5 - Eli mod - D97] (puzzle: Exclusion 5)”, the “apparent KD of MS2 coat protein” value was determined as 17.9 nM under setting [2], 38.8 nM under setting [3] and 55.2 nM under setting [4].

On to “GCCCUCGCUGAGGAUAUUAUCUGGCUCGACCGAUAAGAAGGCAGUACAUGAGGAUCACCCAUGUGGUUCGUUCG [Polaris46] (Eterna round: R97, puzzle: Exclusion 6)”, for which the “apparent KD of MS2 coat protein” value is, setting by setting: (input ligand: FMN 200 uM) 97.9 nM; (input ligand: none) 41 nM.

In the case of “GCCGGAUAAGUGAGGAUAUACCUAUGGAUACAUAGGUAGAAGGCACAUGAGGAUCACCCAUGUACCUCUCCGGC [JL-BMX4-4.18 Eli mod] (Eterna round: R97, puzzle: Brourd's mod of Exclusion 4)”, the “apparent KD of MS2 coat protein” value is, setting by setting: (input ligand: FMN 200 uM) 87.5 nM; (input ligand: none) 14.8 nM.

For the sequence “GCCGGGCGAGGAUAUACAUGGCGGGCGAAAGCCCGCGAUCUACAUGAGGAUCACCCAUGUAGAAGGCGCCCGGC [2nd Free energy optimized design] (Eterna round: R97, puzzle: Exclusion 2)”, the “apparent KD of MS2 coat protein” value (input ligand: FMN 200 uM) came to 567 nM and the “apparent KD of MS2 coat protein” value (input ligand: none) was 49.3 nM.

In the case of “GCCUCACUUGAGGAUCACCCAAGUCAGGAUAUUCACUGAACUACGUAGCAGUUCGGCCGAAGAAGGGAUUCGGG [Azaraqu] (Eterna round: R97, puzzle: Exclusion 1)”, the “apparent KD of MS2 coat protein” value reads like this: (input ligand: FMN 200 uM) 44.5 nM; (input ligand: none) 95.1 nM.

Take “GCCUCACUUGAGGAUCACCCAAGUCAGGAUAUUCACUGAACUGCGUAACAGUUCGGCCGAAGAAGGGAUUCGGG [Uscedian] (Eterna round: R97, puzzle: Exclusion 1)”: the “apparent KD of MS2 coat protein” value amounted to 35.6 nM (input ligand: FMN 200 uM) and 96.5 nM (input ligand: none).

Regarding “GCGCACCUACCAAAAGGUAGGCCAACAUGAGGAUCACCCAUGUAGGAUAUCGAUUGCUUUGCAGUCGAGAAGGACAUGAUGCGC [JL ENG3 3.80 Mod 8] (Eterna round: R96, puzzle: Exclusion NG 3)”, the “apparent KD of MS2 coat protein” value runs as follows: (input ligand: FMN 200 uM) 33.8 nM; under setting [1], 15.4 nM; (input ligand: none) 21.6 nM.

On to “GCGCACCUACCAAAAGGUAGGUCAACAUGAGGAUCACCCAUGUAGGAUAUCGAUUGCUUUGCAGUCGAGAAGGACAUGAUGCGC [JL ENG3 3.80 Mod 13] (Eterna round: R96, puzzle: Exclusion NG 3)”, for which the “apparent KD of MS2 coat protein” value runs as follows: (input ligand: FMN 200 uM) 111 nM; under setting [1], 36.3 nM; (input ligand: none) 36.7 nM.

For “GCGCCAUCGUGAGAUGGCGUAUAUACAUGAGGAUCACCCAUGUAGGAUAUCGAUUGCUUUGCAGUCGAGAAGGGCAAGGUAUUU [JL ENG3 3.91] (Eterna round: R96, puzzle: Exclusion NG 3)”, the “apparent KD of MS2 coat protein” value came out at 34 nM (input ligand: FMN 200 uM), 25.5 nM under setting [1] and 33.8 nM (input ligand: none).

In the case of “GCGCGCGCAGGAUAUACAUGAGGAUCACCCAUGUAGGGCCCGGGUAUUCCCGGGCCCUGUAGAAGGGUGUGUGU [-40.4, -37.1 kcal, A 19%, 0-6] (Eterna round: R97, puzzle: Exclusion 3)”, the “apparent KD of MS2 coat protein” value runs as follows: (input ligand: FMN 200 uM) 21.8 nM; (input ligand: none) 113 nM.

As for “GCGCGCUAAGGAUAUACAUGAGGAUCACCCAUGUGCGCGCAAAAGCGCCGCGCGCGCGGUAGAAGGUAGGCAAA [Extraordinary-Exclusion 3] (Eterna round: R97, puzzle: Exclusion 3)”, the “apparent KD of MS2 coat protein” value is, setting by setting: (input ligand: FMN 200 uM) 16 nM; (input ligand: none) 11.4 nM.

On to “GCGCGGACAGGAUAUACAUGAGGAUCACCCAUGUGUGAGGCUAACAGUGCCAACUCUGGUAGAAGGGUCCCGGG [EX3 B.19] (Eterna round: R97, puzzle: Exclusion 3)”, for which the “apparent KD of MS2 coat protein” value was 269 nM (input ligand: FMN 200 uM) and 111 nM (input ligand: none).

Consider “GCGCGUAGAUAGGAUAUUUGAUAAAGACGGACCAAAGAAGGAUUUACAUGAGGAUCACCCAUGUCGAUCCUCUU [EX6 C.17] (Eterna round: R97, puzzle: Exclusion 6)”, for which the “apparent KD of MS2 coat protein” value is, setting by setting: (input ligand: FMN 200 uM) 14.2 nM; (input ligand: none) 16.4 nM.

“GCGGACUAGAACGUGAGUUCUGAGACAUGAGGAUCACCCAUGUAGGAUAUCGAUUCGAAACGAAUCGAGAAGGGCAUAGUCCGC [JL denovo 11] (Eterna round: R96, puzzle: Exclusion NG 3)”: the “apparent KD of MS2 coat protein” value (input ligand: FMN 200 uM) stood at 15.2 nM, the “apparent KD of MS2 coat protein” value under setting [1] was found to be 14.7 nM and the “apparent KD of MS2 coat protein” value (input ligand: none) amounted to 17.7 nM.

On to “GCGGAUCUAGGAUAUACAUGAGGAUCACCCAUGUAAACUCUCUUGGAUGACUACUAUUGUAGAAGGAGAUAAGC [Erlabeedle] (puzzle: Exclusion 3)”, for which, under setting [3], the “apparent KD of MS2 coat protein” value amounted to 24.4 nM.

Consider “GCGUACUGAGGAUAUACAUGAGGAUCACCCAUGUGAAGAAGAAAGUAGUGAUGGUUGGGUAGAAGGCAGUAUGC [JR_Ex3_Sub064] (Eterna round: R97, puzzle: Exclusion 3)”, for which the “apparent KD of MS2 coat protein” value (input ligand: FMN 200 uM) was found to be 103 nM and the “apparent KD of MS2 coat protein” value (input ligand: none) stood at 98.5 nM.

As to “GCGUUCUGAGGAUAUACAUGAGGAUCACCCAUGUUGAGAAGAAAGUAUAAAAGAUUGUGUAGAAGGCAGAGUGC [JR_Ex3_Sub070] (Eterna round: R97, puzzle: Exclusion 3)”, the “apparent KD of MS2 coat protein” value by setting is: (input ligand: FMN 200 uM) 112 nM; (input ligand: none) 38.4 nM.

On to “GCUCUCUCUCUGUCUCUCUACAUGAGGAUCACCCAUGUGUCUCGCUCGCUCUCUCUCUCUCUUUCUCUCUCUCUCUU [Default title] (Eterna round: R97, puzzle: Sensor, turn-off variant 1)”, for which the “apparent KD of MS2 coat protein” value is, setting by setting: (input ligand: FMN 200 uM) 104 nM; (input ligand: none) 135 nM.

Consider “GCUGCACAUGUAGGAUAUCUGCACGUGUAGUGCAGAGAAGGACAUGAGGAUCACCCAUGUAGAUCAGCAGCAAUUAAUUUAAUU [ENG1/6-A2] (Eterna round: R96, puzzle: Exclusion NG 1)”, for which the “apparent KD of MS2 coat protein” value was determined as 150 nM (input ligand: FMN 200 uM), 273 nM under setting [1] and 242 nM (input ligand: none).

For “GCUGCGCGAGGAUAUGCGGUUCGGGCGGUGGCCGCUGGCGGACAUGAGGAUCACCCAUGUAGAAGGCGUGCGGG [Apr-15 SS2-61] (puzzle: Exclusion 2)”, the “apparent KD of MS2 coat protein” value under setting [3] came to 14.9 nM.

As to “GCUGCGCGAGGAUAUGCGGUUUGUGCUUUGGCCCAUGGCGUACAUGAGGAUCACCCAUGUAGAAGGCGUGUGGG [Apr-15 SS2-52] (puzzle: Exclusion 2)”, the “apparent KD of MS2 coat protein” value under setting [3] turned out to be 12 nM.

Regarding “GCUGGAAAAGGAUAUACAUAACGUGCGUCAGCACGAGACCUACAUGAGGAUCACCCAUGUAGAAGGUUUCCAGC [EX2 #75] (Eterna round: R97, puzzle: Exclusion 2)”, the “apparent KD of MS2 coat protein” value by setting is: (input ligand: FMN 200 uM) 22.8 nM; (input ligand: none) 16.8 nM.

With “GCUGGACAAGGAUAUAUAUGACGUGCUUCGGCACGAAGAUCACAUGAGGAUCACCCAUGUAGAAGGUGUCCAGC [E2/8-C2] (Eterna round: R97, puzzle: Exclusion 2)”, the “apparent KD of MS2 coat protein” value stood at 594 nM (input ligand: FMN 200 uM) and 91.8 nM (input ligand: none).

Consider “GCUGGUCAAGGAUAUACAAUCGUGCUUCGGCACGUAAGAUCACAUGAGGAUCACCCAUGUAGAAGGUGACCAGC [E2/1-C1] (Eterna round: R97, puzzle: Exclusion 2)”, for which the “apparent KD of MS2 coat protein” value reads like this: (input ligand: FMN 200 uM) 507 nM; (input ligand: none) 37.2 nM.

For the sequence “GCUGGUCAAGGAUAUGCAAUCGUGCUUCGGCACGUAAGGUCACAUGAGGAUCACCCAUGUAGAAGGUGACCAGC [E2/4-C1] (Eterna round: R97, puzzle: Exclusion 2)”, the “apparent KD of MS2 coat protein” value reads like this: (input ligand: FMN 200 uM) 27.8 nM; (input ligand: none) 18.4 nM.

As to “GCUGGUCGAGGAUAUGCAAUCGUGCUUCGGCACGUAAGAUCACAUGAGGAUCACCCAUGUAGAAGGUGACCAGC [E2/3-B1] (Eterna round: R97, puzzle: Exclusion 2)”, the “apparent KD of MS2 coat protein” value (input ligand: FMN 200 uM) came to 31.2 nM and the “apparent KD of MS2 coat protein” value (input ligand: none) worked out at 17.8 nM.

As to “GCUGGUGUGCAGGAUAUUUAAUUGCAAAUAAAUAAAGAAGGGCAUACAUGAGGAUCACCCAUGUCGUCGUUGCG [Eternabot (L1) Solution 98] (Eterna round: R97, puzzle: Exclusion 6)”, the “apparent KD of MS2 coat protein” value reads like this: (input ligand: FMN 200 uM) 39.2 nM; (input ligand: none) 32.7 nM.

With “GCUUCGGCAGGAUAUACAAGCUUCGGCUGAAAAGUUGAAGUACAUGAGGAUCACCCAUGUAGAAGGGUUGAAGU [-25.7, -24.2 kcal, A 32% 3 bis, 3 bis] (Eterna round: R97, puzzle: Exclusion 2)”, the “apparent KD of MS2 coat protein” value (input ligand: FMN 200 uM) stood at 45.6 nM and the “apparent KD of MS2 coat protein” value (input ligand: none) stood at 60.1 nM.

The values above are taken from the supplement of paper PMC9170038.
